# In publication PMC3277881 (Molecular Cell, 2011):
# T1: Atg3 (yeast) (yeast (budding yeast), UniProt P40344 1-310)
# T1 sequence: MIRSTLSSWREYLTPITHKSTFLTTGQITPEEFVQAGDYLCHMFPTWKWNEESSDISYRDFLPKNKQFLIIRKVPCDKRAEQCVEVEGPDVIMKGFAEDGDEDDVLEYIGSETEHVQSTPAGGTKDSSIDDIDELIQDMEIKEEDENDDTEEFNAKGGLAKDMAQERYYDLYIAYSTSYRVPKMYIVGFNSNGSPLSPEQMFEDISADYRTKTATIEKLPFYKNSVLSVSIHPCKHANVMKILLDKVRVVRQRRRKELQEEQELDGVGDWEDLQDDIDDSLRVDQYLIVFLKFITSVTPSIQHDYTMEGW
# B1: Atg7 N-terminal domain (Atg7^NTD), yeast (domain or fragment, yeast (budding yeast), UniProt P38862 1-289, looked up)
# chain: MSSERVLSYAPAFKSFLDTSFFQELSRLKLDVLKLDSTCQPLTVNLDLHNIPKSADQVPLFLTNRSFEKHNNKRTNEVPLQGSIFNFNVLDEFKNLDKQLFLHQRALECWEDGIKDINKCVSFVIISFADLKKYRFYYWLGVPCFQRPSSTVLHVRPEPSLKGLFSKCQKWFDVNYSKWVCILDADDEIVNYDKCIIRKTKVLAIRDTSTMENVPSALTKNFLSVLQYDVPDLIDFKLLIIRQNEGSFALNATFASIDPQSSSSNPDMKVSGWERNVQGKLAPRVVDLS
# B2: Atg3^ΔFR (yeast Atg3 with the FR region, residues 86-159, deleted) (enzyme, yeast (budding yeast))
# chain: MIRSTLSSWREYLTPITHKSTFLTTGQITPEEFVQAGDYLCHMFPTWKWNEESSDISYRDFLPKNKQFLIIRKVPCDKRAEQCVEAKDMAQERYYDLYIAYSTSYRVPKMYIVGFNSNGSPLSPEQMFEDISADYRTKTATIEKLPFYKNSVLSVSIHPCKHANVMKILLDKVRVVRQRRRKELQEEQELDGVGDWEDLQDDIDDSLRVDQYLIVFLKFITSVTPSIQHDYTMEGW
# B3: Atg7 C-terminal domain (Atg7^CTD), yeast (domain or fragment, yeast (budding yeast))
# chain: SSLLDPLKIADQSVDLNLKLMKWRILPDLNLDIIKNTKVLLLGAGTLGCYVSRALIAWGVRKITFVDNGTVSYSNPVRQALYNFEDCGKPKAELAAASLKRIFPLMDATGVKLSIPMIGHKLVNEEAQHKDFDRLRALIKEHDIIFLLVDSRESRWLPSLLSNIENKTVINAALGFDSYLVMRHGNRDEQSSKQLGCYFCHDVVAPTDSLTDRTLDQMCTVTRPGVAMMASSLAVELMTSLLQTKYSGSETTVLGDIPHQIRGFLHNFSILKLETPAYEHCPACSPKVIEAFTDLGWEFVKKALEHPLYLEEISGLSVIKQEVERLGNDVFEWEDDESDEIA
# B4: full-length yeast Atg7 (enzyme, yeast (budding yeast), UniProt P38862 1-630, looked up)
# chain: MSSERVLSYAPAFKSFLDTSFFQELSRLKLDVLKLDSTCQPLTVNLDLHNIPKSADQVPLFLTNRSFEKHNNKRTNEVPLQGSIFNFNVLDEFKNLDKQLFLHQRALECWEDGIKDINKCVSFVIISFADLKKYRFYYWLGVPCFQRPSSTVLHVRPEPSLKGLFSKCQKWFDVNYSKWVCILDADDEIVNYDKCIIRKTKVLAIRDTSTMENVPSALTKNFLSVLQYDVPDLIDFKLLIIRQNEGSFALNATFASIDPQSSSSNPDMKVSGWERNVQGKLAPRVVDLSSLLDPLKIADQSVDLNLKLMKWRILPDLNLDIIKNTKVLLLGAGTLGCYVSRALIAWGVRKITFVDNGTVSYSNPVRQALYNFEDCGKPKAELAAASLKRIFPLMDATGVKLSIPMIGHKLVNEEAQHKDFDRLRALIKEHDIIFLLVDSRESRWLPSLLSNIENKTVINAALGFDSYLVMRHGNRDEQSSKQLGCYFCHDVVAPTDSLTDRTLDQMCTVTRPGVAMMASSLAVELMTSLLQTKYSGSETTVLGDIPHQIRGFLHNFSILKLETPAYEHCPACSPKVIEAFTDLGWEFVKKALEHPLYLEEISGLSVIKQEVERLGNDVFEWEDDESDEIA
# Assays:
# full-length yeast Atg7 = molecular target: B4; experiment: ITC
# Atg3 (yeast) = molecular target: T1, Atg3 (yeast); experiment: ITC
# AUC = molecular target: the molecule itself; experiment: AUC
binder,measurement,setting,value
"SIDDIDELIQDMEIKEE (peptide, UniProt P40344 128-144, looked up) [synthetic peptide encompassing Atg3 residues 128-144 (Atg3^FRpep)]",Kd,full-length yeast Atg7,5.9 µM
B1,Kd,Atg3 (yeast),1850 nM
B2,fold change of Kd against Atg3,full-length yeast Atg7,> 40 fold
B3,stoichiometry N,AUC,2
B4,stoichiometry N,AUC,2
